# Measurements published in the RNAGym collection of RNA variant scans (doi:10.1021/acssynbio.7b00057).
# B1: Pistol ribozyme (parent)
# chain: GGGUCGUUGUUCCAUAAUCGCGUGGAUAUGGCACGCAAGUUUCUACCGGGCACCGUAAAUGUCCGACUGGAGCCGUUCGGGCGGCUAUAAACAGACCUCAGGCCCGAAGCGUGGCGGCACCUGCCGCCGGUGGUAAAAAAGAUCGGAAGAGCACACGUCU
# Variants of: B1
# Experiment: aptazyme ON/OFF ratio, guanine; higher = stronger switching; co-transcriptional cleavage with and without guanine
row,Variant,aptazyme ON/OFF ratio
1,GGGUCGCUUACUUAUAAUCGCGUGGAUAUGGCACGCAAGUUUCUACCGGGCACCGUAAAUGUCCGACUGGAGCCGUUCGGGCGGCUAUAAACAGACCUCAGGCCCGAAGCGUGGCGGCACCUGCCGCCGGUGGUAAAAAAGAUCGGAAGAGCACACGUCU [U7C G9U U10A U11C C12U C13U],1.29
2,GGGUCGACAAUGUAUAAUCGCGUGGAUAUGGCACGCAAGUUUCUACCGGGCACCGUAAAUGUCCGACUGGAGCCGUUCGGGCGGCUAUAAACAGACCUCAGGCCCGAAGCGUGGCGGCACCUGCCGCCGGUGGUAAAAAAGAUCGGAAGAGCACACGUCU [U7A U8C G9A U10A C12G C13U],1.28
3,GGGUCGAAUGUCCAUAAUCGCGUGGAUAUGGCACGCAAGUUUCUACCGGGCACCGUAAAUGUCCGACUGGAGCCGUUCGGGCGGCUAUAAACAGACCUCAGGCCCGAAGCGUGGCGGCACCUGCCGCCGGUGGUAAAAAAGAUCGGAAGAGCACACGUCU [U7A U8A G9U U10G],1.61
4,GGGUCGGACAUACAUAAUCGCGUGGAUAUGGCACGCAAGUUUCUACCGGGCACCGUAAAUGUCCGACUGGAGCCGUUCGGGCGGCUAUAAACAGACCUCAGGCCCGAAGCGUGGCGGCACCUGCCGCCGGUGGUAAAAAAGAUCGGAAGAGCACACGUCU [U7G U8A G9C U10A C12A],1.03
5,GGGUCGAAGAGAAAUAAUCGCGUGGAUAUGGCACGCAAGUUUCUACCGGGCACCGUAAAUGUCCGACUGGAGCCGUUCGGGCGGCUAUAAACAGACCUCAGGCCCGAAGCGUGGCGGCACCUGCCGCCGGUGGUAAAAAAGAUCGGAAGAGCACACGUCU [U7A U8A U10A U11G C12A C13A],1.19
6,GGGUCGAUGCAAUAUAAUCGCGUGGAUAUGGCACGCAAGUUUCUACCGGGCACCGUAAAUGUCCGACUGGAGCCGUUCGGGCGGCUAUAAACAGACCUCAGGCCCGAAGCGUGGCGGCACCUGCCGCCGGUGGUAAAAAAGAUCGGAAGAGCACACGUCU [U7A U10C U11A C12A C13U],1.11
7,GGGUCGUACUCUCAUAAUCGCGUGGAUAUGGCACGCAAGUUUCUACCGGGCACCGUAAAUGUCCGACUGGAGCCGUUCGGGCGGCUAUAAACAGACCUCAGGCCCGAAGCGUGGCGGCACCUGCCGCCGGUGGUAAAAAAGAUCGGAAGAGCACACGUCU [U8A G9C U11C C12U],1.09
8,GGGUCGCGAUGGCAUAAUCGCGUGGAUAUGGCACGCAAGUUUCUACCGGGCACCGUAAAUGUCCGACUGGAGCCGUUCGGGCGGCUAUAAACAGACCUCAGGCCCGAAGCGUGGCGGCACCUGCCGCCGGUGGUAAAAAAGAUCGGAAGAGCACACGUCU [U7C U8G G9A U11G C12G],1.23
9,GGGUCGAUCAACUAUAAUCGCGUGGAUAUGGCACGCAAGUUUCUACCGGGCACCGUAAAUGUCCGACUGGAGCCGUUCGGGCGGCUAUAAACAGACCUCAGGCCCGAAGCGUGGCGGCACCUGCCGCCGGUGGUAAAAAAGAUCGGAAGAGCACACGUCU [U7A G9C U10A U11A C13U],1.1
10,GGGUCGGCGAAUCAUAAUCGCGUGGAUAUGGCACGCAAGUUUCUACCGGGCACCGUAAAUGUCCGACUGGAGCCGUUCGGGCGGCUAUAAACAGACCUCAGGCCCGAAGCGUGGCGGCACCUGCCGCCGGUGGUAAAAAAGAUCGGAAGAGCACACGUCU [U7G U8C U10A U11A C12U],1.43
11,GGGUCGGAGGUGUAUAAUCGCGUGGAUAUGGCACGCAAGUUUCUACCGGGCACCGUAAAUGUCCGACUGGAGCCGUUCGGGCGGCUAUAAACAGACCUCAGGCCCGAAGCGUGGCGGCACCUGCCGCCGGUGGUAAAAAAGAUCGGAAGAGCACACGUCU [U7G U8A U10G C12G C13U],1.27
12,GGGUCGCGAUGAAAUAAUCGCGUGGAUAUGGCACGCAAGUUUCUACCGGGCACCGUAAAUGUCCGACUGGAGCCGUUCGGGCGGCUAUAAACAGACCUCAGGCCCGAAGCGUGGCGGCACCUGCCGCCGGUGGUAAAAAAGAUCGGAAGAGCACACGUCU [U7C U8G G9A U11G C12A C13A],1.17
13,GGGUCGUGGGCAUAUAAUCGCGUGGAUAUGGCACGCAAGUUUCUACCGGGCACCGUAAAUGUCCGACUGGAGCCGUUCGGGCGGCUAUAAACAGACCUCAGGCCCGAAGCGUGGCGGCACCUGCCGCCGGUGGUAAAAAAGAUCGGAAGAGCACACGUCU [U8G U10G U11C C12A C13U],1.09
14,GGGUCGAUAACCAAUAAUCGCGUGGAUAUGGCACGCAAGUUUCUACCGGGCACCGUAAAUGUCCGACUGGAGCCGUUCGGGCGGCUAUAAACAGACCUCAGGCCCGAAGCGUGGCGGCACCUGCCGCCGGUGGUAAAAAAGAUCGGAAGAGCACACGUCU [U7A G9A U10A U11C C13A],1.02
15,GGGUCGUAGUGGGAUAAUCGCGUGGAUAUGGCACGCAAGUUUCUACCGGGCACCGUAAAUGUCCGACUGGAGCCGUUCGGGCGGCUAUAAACAGACCUCAGGCCCGAAGCGUGGCGGCACCUGCCGCCGGUGGUAAAAAAGAUCGGAAGAGCACACGUCU [U8A U11G C12G C13G],1.27
16,GGGUCGAUCUCGUAUAAUCGCGUGGAUAUGGCACGCAAGUUUCUACCGGGCACCGUAAAUGUCCGACUGGAGCCGUUCGGGCGGCUAUAAACAGACCUCAGGCCCGAAGCGUGGCGGCACCUGCCGCCGGUGGUAAAAAAGAUCGGAAGAGCACACGUCU [U7A G9C U11C C12G C13U],1.09
17,GGGUCGCUGGCGCAUAAUCGCGUGGAUAUGGCACGCAAGUUUCUACCGGGCACCGUAAAUGUCCGACUGGAGCCGUUCGGGCGGCUAUAAACAGACCUCAGGCCCGAAGCGUGGCGGCACCUGCCGCCGGUGGUAAAAAAGAUCGGAAGAGCACACGUCU [U7C U10G U11C C12G],1.52
18,GGGUCGCUCUCCGAUAAUCGCGUGGAUAUGGCACGCAAGUUUCUACCGGGCACCGUAAAUGUCCGACUGGAGCCGUUCGGGCGGCUAUAAACAGACCUCAGGCCCGAAGCGUGGCGGCACCUGCCGCCGGUGGUAAAAAAGAUCGGAAGAGCACACGUCU [U7C G9C U11C C13G],1.02
